Read-outs that look alike come from different tables or passages of the source. Starred links: 1 amine or outer side, 2 acyl side, 3 side chain; linkers in the order of their positions; H or OH if unused. Positions of bridges follow the written chain, without caps; N, C: chain ends. Non-standard residues stand in square brackets, D forms with d. αMeNva(5-ylidene) = C[C@@](CCC=[*:3])(N[*:1])C(=O)[*:2]; S8 = C=CCCCCCC[C@](C)(N)C(=O)O; SeMet = C[Se]CC[C@H](N)C(=O)O; S5 = C=CCCC[C@](C)(N)C(=O)O; Nle = CCCC[C@H](N)C(=O)O
Columns and labels:
[1] = target: T1, hDcn1^P (PONY domain of human Dcn1 / DCUN1D1 / SCCRO, residues 62 to 259) (Homo sapiens, UniProt Q96GG9 62-259); experiment: ITC, peptide titrated into hDcn1^P
T1 construct: NEDD8 co-E3; Expressed as a GST fusion in E. coli; GST was removed with TEV protease; also called DCUN1D1^P
Protocol: (§1) To gain insights into mechanistic roles of Ubc12 N-terminal acetylation, isothermal titration calorimetry (ITC) was used to quantify interactions with peptides corresponding to the N-termini of yeast or human Ubc12.
(§2) Protein samples were buffer matched by desalting over a NAP-5 column (GE Healthcare) into 50 mM Hepes, 125 mM NaCl, 1 mM BME, pH 7.0 (ITC buffer). Peptides were dissolved by weight to a final concentration of 10 mM in ITC buffer and diluted further in ITC buffer as required for the experiments. […] The peptide ligands (4 mM) were constantly injected (1.5 μl). The interval time between each injection was 3 minutes and the duration of each injection was 3 seconds. […] Peptide ligands (250 μM) were constantly injected (2.5 μl). The interval time between each injection was three minutes and the duration of each injection was 5 seconds. […] The interval time between each injection was 3 minutes and the duration of each injection was 5 seconds. Obtained spectra were evaluated using Origin (V 7.0) to determine heats of binding and Kd values.

[2] = target: T2, hE1 for Nedd8 (APPBP1-UBA3, NAE1-UBA3) (Homo sapiens, UniProt Q13564 18-534; Q8TBC4 22-463, limits assumed); experiment: ITC, peptide titrated into hE1
T2 construct: Heterodimeric E1 expressed in E. coli as described in earlier publications
T2 sequence 1: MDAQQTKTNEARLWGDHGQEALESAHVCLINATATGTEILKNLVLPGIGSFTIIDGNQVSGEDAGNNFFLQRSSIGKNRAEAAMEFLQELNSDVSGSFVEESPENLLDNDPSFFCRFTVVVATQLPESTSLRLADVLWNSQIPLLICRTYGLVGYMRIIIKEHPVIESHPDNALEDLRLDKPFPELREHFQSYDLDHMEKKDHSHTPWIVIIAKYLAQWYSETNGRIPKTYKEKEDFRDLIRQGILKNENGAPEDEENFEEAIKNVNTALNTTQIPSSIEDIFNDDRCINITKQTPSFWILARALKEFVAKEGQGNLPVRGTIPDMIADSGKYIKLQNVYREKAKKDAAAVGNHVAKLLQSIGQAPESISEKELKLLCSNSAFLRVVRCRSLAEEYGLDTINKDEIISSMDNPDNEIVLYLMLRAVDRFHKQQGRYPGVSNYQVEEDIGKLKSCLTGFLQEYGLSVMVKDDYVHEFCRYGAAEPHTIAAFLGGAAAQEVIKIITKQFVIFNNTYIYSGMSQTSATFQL
T2 sequence 2: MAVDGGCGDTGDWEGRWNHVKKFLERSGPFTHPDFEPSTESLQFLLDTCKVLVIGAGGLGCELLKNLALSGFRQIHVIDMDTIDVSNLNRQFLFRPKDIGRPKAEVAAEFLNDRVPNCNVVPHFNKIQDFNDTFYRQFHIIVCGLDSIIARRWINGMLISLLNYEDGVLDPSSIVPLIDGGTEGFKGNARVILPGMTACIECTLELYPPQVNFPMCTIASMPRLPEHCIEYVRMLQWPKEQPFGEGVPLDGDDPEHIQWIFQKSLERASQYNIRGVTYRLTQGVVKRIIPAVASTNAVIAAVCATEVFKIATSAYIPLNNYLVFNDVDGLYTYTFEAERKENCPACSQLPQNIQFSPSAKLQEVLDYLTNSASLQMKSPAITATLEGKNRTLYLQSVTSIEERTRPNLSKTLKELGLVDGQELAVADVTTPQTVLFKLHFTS
Protocol: as §1, §2

[3] = target: T1, hDcn1^P (PONY domain of human Dcn1 / …); experiment: ITC, peptide titrated into hDcn1^P; remark: listed apart in the source
Protocol: (§3) Specifically, Phe5 and Gln9 were replaced with (S)-2-(4′-pentenyl) alanine and these side-chains were covalently linked to test the effect of “stapling” an acetylated Ubc12 peptide into a helix (Bird et al. (2008) Methods Enzymol 446:369-386).
as §2

[4] = target: T2, hE1 for Nedd8 (APPBP1-UBA3, NAE1-UBA3); experiment: ITC, peptide titrated into hE1; remark: listed apart in the source
Protocol: as §3, §2

[5] = target: T3, hDcn1^P (potentiating neddylation / PONY domain of human Dcn1, DCUN1D1) (Homo sapiens, UniProt Q96GG9 62-259); experiment: ITC, two-site fit, first value
T3 construct: also called DCUN1D1^P; SCCRO PONY domain
Protocol: as §2

[6] = target: T3, hDcn1^P (potentiating neddylation / …); experiment: ITC, two-site fit, second value
Protocol: as §2

[7] = target: T4, yE1 for yNedd8 (Ula1-Uba3) (Saccharomyces cerevisiae, UniProt Q12059 1-462, limits assumed); experiment: ITC, peptide titrated into yE1
T4 construct: Heterodimeric E1 expressed in E. coli as described in earlier publications
T4 sequence 1: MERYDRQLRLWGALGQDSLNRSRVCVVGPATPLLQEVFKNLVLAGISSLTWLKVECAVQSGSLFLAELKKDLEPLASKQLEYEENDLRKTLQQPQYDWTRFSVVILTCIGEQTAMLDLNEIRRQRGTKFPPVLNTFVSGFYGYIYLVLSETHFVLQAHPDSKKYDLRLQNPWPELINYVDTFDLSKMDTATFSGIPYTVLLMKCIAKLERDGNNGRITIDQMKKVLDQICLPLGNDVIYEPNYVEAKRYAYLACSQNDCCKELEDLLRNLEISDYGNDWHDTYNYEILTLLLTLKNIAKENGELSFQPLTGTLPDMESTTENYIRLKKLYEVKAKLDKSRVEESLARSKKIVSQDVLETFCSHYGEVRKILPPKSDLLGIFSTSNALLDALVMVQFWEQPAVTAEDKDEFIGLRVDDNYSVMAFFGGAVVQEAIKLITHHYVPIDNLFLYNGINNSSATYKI
T4 sequence 2: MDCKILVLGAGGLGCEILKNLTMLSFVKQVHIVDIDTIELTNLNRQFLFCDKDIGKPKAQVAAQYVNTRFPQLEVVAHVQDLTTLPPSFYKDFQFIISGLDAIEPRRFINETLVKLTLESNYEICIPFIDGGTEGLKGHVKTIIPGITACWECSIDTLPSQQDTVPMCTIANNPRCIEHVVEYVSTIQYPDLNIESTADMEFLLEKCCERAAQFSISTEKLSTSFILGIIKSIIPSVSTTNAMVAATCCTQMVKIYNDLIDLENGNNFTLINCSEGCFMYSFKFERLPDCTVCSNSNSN
Protocol: as §1, §2

[8] = target: yDcn1^P (potentiating neddylation / PONY domain of Saccharomyces cerevisiae Dcn1) (Saccharomyces cerevisiae) (UniProt Q12395); experiment: ITC, peptide titrated into yDcn1^P
[9] = target: hDcn1^P (PONY domain of human Dcn1 / DCUN1D1 / SCCRO, residues 62 to 259) (Homo sapiens) (UniProt Q96GG9); experiment: ITC, peptide titrated into hDcn1^P
[10] = target: T5, hDcn3^P (PONY domain of human DCUN1D3) (Homo sapiens, UniProt Q8IWE4 86-304); experiment: ITC, peptide titrated into Dcn PONY domain
T5 sequence: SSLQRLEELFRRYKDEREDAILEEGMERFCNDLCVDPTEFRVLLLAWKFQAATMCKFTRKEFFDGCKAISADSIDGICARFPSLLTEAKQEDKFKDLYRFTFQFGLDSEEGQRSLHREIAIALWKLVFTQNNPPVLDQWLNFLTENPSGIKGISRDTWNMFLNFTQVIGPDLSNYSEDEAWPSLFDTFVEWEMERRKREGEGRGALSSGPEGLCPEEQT
Protocol: as §2

[11] = target: T3, hDcn1^P (potentiating neddylation / …); experiment: ITC, peptide titrated into Dcn PONY domain
Protocol: as §2

[12] = target: T6, hDcn5^P (PONY domain of human DCUN1D5) (Homo sapiens, UniProt Q9BTE7 47-237); experiment: ITC, peptide titrated into Dcn PONY domain
T6 sequence: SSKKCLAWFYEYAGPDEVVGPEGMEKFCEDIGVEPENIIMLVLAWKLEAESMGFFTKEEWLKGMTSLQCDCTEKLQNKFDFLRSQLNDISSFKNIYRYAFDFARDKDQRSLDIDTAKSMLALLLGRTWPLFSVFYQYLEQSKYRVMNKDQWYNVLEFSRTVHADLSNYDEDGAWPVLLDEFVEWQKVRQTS
Protocol: as §2

T1 sequence (Q96GG9 62-259): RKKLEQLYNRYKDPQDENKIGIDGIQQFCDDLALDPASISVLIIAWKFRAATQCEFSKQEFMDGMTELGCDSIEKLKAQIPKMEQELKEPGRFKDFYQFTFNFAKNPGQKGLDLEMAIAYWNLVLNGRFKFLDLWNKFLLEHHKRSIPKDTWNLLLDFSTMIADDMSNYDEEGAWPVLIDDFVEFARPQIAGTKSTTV
Chain of hDcn1^P (PONY domain of human Dcn1 / DCUN1D1 / SCCRO, residues 62 to 259) (Homo sapiens) (Q96GG9 62-259): as above
T3 sequence (Q96GG9 62-259): as above

B1: Acetyl-hUbc12^2-26 peptide (peptide)
peptide: Ac-IKLFSLKQQKKEEESAGGTKGSSKK-NH2
notes: Synthetic peptide lacking Met1; also called hUbc12^Ac-2-26
[1]
  ΔH: 1.72 kcal/mol
  ΔS: 24.1 cal/mol/deg
[2]
  Kd: 390 nM
  N (stoichiometry): 1.04
  ΔH: -8.9 kcal/mol
  ΔS: -1.24 cal/mol/deg

B2: Acetyl-hUbc12^1-26 peptide (peptide)
peptide: Ac-MIKLFSLKQQKKEEESAGGTKGSSKK-NH2
notes: Synthetic peptide; also called hUbc12^Ac1-26
[1]
  Kd: 1110 nM
  ΔH: -6.11 kcal/mol
  ΔS: 5.84 cal/mol/deg
[2]
  Kd: 943 nM
  N (stoichiometry): 1.14
  ΔH: -9.43 kcal/mol
  ΔS: -4.79 cal/mol/deg

B3: Acetyl-hUbc12^1-12(5:9Staple) peptide (peptide)
peptide: Ac-MIKL[S5]SLK[S5]QKK-NH2
modifications: staple 5-9
notes: Printed as Ac-MIKLXSLKXQKK-NH2, X = 2-(4-pentenyl)alanine; Phe5 and Gln9 are replaced
[3]
  Kd: 150 nM
  ΔH: -3.39 kcal/mol
  ΔS: 19.3 cal/mol/deg
[4]
  binding result: no binding

B4: hUbc12^Ac1-12 (Met) SS 6, 10 (peptide)
peptide: Ac-MIKLF[S5]LKQ[S5]KK-NH2
modifications: staple 6-10
notes: Stapled synthetic peptide; 'SS' is not explained in the text
[5]
  Kd: 1.8 nM
[6]
  Kd: 187 nM

B5: yUbc12^1-24 peptide (free N-terminus) (peptide)
peptide: H-MLKLRQLQKKKQKENENSSSIQPN-NH2
notes: Synthetic peptide, N-terminal extension of yeast Ubc12
[7]
  Kd: 70 nM
  N (stoichiometry): 1.05
  ΔH: -8.57 kcal/mol
  ΔS: 2.65 cal/mol/deg
[8]
  N (stoichiometry): 1.16
  ΔH: 3.78 kcal/mol
  ΔS: 33.4 cal/mol/deg

B6: hUbc12^Ac1-12 (NorLeu) 6, 10 (peptide)
peptide: Ac-[Nle]IKLF[S5]LKQ[S5]KK-NH2
modifications: staple 6-10
SMILES: CCCC[C@H](NC(C)=O)C(=O)N[C@H](C(=O)N[C@@H](CCCCN)C(=O)N[C@@H](CC(C)C)C(=O)N[C@@H](Cc1ccccc1)C(=O)N[C@@]1(C)CCCC=CCCC[C@@](C)(C(=O)N[C@@H](CCCCN)C(=O)N[C@@H](CCCCN)C(N)=O)NC(=O)[C@H](CCC(N)=O)NC(=O)[C@H](CCCCN)NC(=O)[C@H](CC(C)C)NC1=O)[C@@H](C)CC
notes: Stapled synthetic peptide
[5]
  Kd: 800 nM
[6]
  Kd: 1200 nM

B7: hUbc12^1-26 peptide (free N-terminus) (peptide)
peptide: H-MIKLFSLKQQKKEEESAGGTKGSSKK-NH2
notes: Synthetic peptide, N-terminal extension of human Ubc12 (UBE2M)
[9]
  N (stoichiometry): 0.75
  ΔH: 1.26 kcal/mol
  ΔS: 22.2 cal/mol/deg
[2]
  Kd: 585 nM
  N (stoichiometry): 1.29
  ΔH: -8.88 kcal/mol
  ΔS: -1.99 cal/mol/deg

B8: hUbc12^Ac1-12 (Met) But:Oct 6, 10 (peptide)
peptide: Ac-MIKLF[αMeNva(5-ylidene)]LKQ[S8]KK-NH2
modifications: staple 6-10
[10]
  Kd: 1520 nM
[11]
  Kd: 120 nM
[12]
  Kd: 781 nM

B9: yUbc12^Ac1-12 (Met) 6, 10 (peptide)
peptide: Ac-MLKLR[S5]LQK[S5]KQ-NH2
modifications: staple 6-10
SMILES: CSCC[C@H](NC(C)=O)C(=O)N[C@@H](CC(C)C)C(=O)N[C@@H](CCCCN)C(=O)N[C@@H](CC(C)C)C(=O)N[C@@H](CCCNC(=N)N)C(=O)N[C@@]1(C)CCCC=CCCC[C@@](C)(C(=O)N[C@@H](CCCCN)C(=O)N[C@@H](CCC(N)=O)C(N)=O)NC(=O)[C@H](CCCCN)NC(=O)[C@H](CCC(N)=O)NC(=O)[C@H](CC(C)C)NC1=O
notes: Stapled synthetic peptide; also called Acetyl-yUbc12^1-12(6:10 Staple)
[5]
  Kd: 38 nM
[6]
  Kd: 37 nM

B10: Acetyl-hUbc12^1-12 peptide (peptide)
peptide: Ac-MIKLFSLKQQKK-NH2
notes: Synthetic control peptide for the stapled peptide; also called hUbc12^Ac1-12
[3]
  ΔH: -4.99 kcal/mol
  ΔS: 8.79 cal/mol/deg
[4]
  Kd: 630 nM
  ΔH: -11.5 kcal/mol
  ΔS: -11 cal/mol/deg

B11: hUbc12^Ac1-12 (SeMet) 6, 10 (peptide)
peptide: Ac-[SeMet]IKLF[S5]LKQ[S5]KK-NH2
modifications: staple 6-10
notes: Stapled synthetic peptide
[5]
  Kd: 0.93 nM
[6]
  Kd: 361 nM

From US20140179593A1 (published 2014)
